According to patent US20140072613A1, “Compositions and Methods for Treating Cutaneous Scarring” (priority 2012, published 2014):

What was measured:
Assay in all cases: biochemical
Assay type in all cases: biochemical
[1] = molecular target: T1, 266 human kinases (Homo sapiens, UniProt Q8IYT8); details: ULK2(h); 100 μM
T1 sequence (Q8IYT8 1-1036): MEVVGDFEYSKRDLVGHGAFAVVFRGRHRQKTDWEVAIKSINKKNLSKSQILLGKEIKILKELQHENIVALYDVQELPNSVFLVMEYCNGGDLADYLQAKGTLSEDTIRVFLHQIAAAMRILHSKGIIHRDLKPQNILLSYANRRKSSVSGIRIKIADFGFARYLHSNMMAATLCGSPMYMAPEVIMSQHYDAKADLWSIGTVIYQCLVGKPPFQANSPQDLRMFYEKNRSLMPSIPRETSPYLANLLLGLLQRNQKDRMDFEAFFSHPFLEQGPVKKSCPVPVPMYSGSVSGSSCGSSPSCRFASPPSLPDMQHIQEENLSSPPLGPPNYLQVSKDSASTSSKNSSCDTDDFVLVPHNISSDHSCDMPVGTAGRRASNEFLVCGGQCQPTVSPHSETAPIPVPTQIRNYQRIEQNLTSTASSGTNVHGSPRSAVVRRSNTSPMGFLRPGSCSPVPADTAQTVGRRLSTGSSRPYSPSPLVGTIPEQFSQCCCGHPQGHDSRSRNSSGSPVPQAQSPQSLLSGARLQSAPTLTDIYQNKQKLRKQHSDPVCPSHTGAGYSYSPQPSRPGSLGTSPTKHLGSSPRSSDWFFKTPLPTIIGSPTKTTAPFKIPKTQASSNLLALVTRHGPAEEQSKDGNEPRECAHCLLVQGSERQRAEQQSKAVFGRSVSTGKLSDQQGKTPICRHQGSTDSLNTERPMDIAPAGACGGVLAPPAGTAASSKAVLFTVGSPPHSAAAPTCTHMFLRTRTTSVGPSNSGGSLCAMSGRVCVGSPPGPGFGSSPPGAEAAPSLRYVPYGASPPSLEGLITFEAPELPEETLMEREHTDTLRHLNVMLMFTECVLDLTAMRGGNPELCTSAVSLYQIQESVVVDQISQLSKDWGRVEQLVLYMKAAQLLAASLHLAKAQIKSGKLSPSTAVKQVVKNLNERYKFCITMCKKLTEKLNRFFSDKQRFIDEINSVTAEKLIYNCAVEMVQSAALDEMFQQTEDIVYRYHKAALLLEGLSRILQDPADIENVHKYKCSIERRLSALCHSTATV
In short: (§1)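 Inhibition was judged from reduced transfer of labelled phosphate from ATP to a positively charged substrate, which was captured on a negatively charged membrane and quantified by scintillation counting against a 100% activity control.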

[2] = molecular target: 266 human kinases (Homo sapiens, UniProt Q9BYP7); details: WNK3(h); 100 μM
Sequence of 266 human kinases (Homo sapiens, UniProt Q9BYP7) (Q9BYP7 whole entry): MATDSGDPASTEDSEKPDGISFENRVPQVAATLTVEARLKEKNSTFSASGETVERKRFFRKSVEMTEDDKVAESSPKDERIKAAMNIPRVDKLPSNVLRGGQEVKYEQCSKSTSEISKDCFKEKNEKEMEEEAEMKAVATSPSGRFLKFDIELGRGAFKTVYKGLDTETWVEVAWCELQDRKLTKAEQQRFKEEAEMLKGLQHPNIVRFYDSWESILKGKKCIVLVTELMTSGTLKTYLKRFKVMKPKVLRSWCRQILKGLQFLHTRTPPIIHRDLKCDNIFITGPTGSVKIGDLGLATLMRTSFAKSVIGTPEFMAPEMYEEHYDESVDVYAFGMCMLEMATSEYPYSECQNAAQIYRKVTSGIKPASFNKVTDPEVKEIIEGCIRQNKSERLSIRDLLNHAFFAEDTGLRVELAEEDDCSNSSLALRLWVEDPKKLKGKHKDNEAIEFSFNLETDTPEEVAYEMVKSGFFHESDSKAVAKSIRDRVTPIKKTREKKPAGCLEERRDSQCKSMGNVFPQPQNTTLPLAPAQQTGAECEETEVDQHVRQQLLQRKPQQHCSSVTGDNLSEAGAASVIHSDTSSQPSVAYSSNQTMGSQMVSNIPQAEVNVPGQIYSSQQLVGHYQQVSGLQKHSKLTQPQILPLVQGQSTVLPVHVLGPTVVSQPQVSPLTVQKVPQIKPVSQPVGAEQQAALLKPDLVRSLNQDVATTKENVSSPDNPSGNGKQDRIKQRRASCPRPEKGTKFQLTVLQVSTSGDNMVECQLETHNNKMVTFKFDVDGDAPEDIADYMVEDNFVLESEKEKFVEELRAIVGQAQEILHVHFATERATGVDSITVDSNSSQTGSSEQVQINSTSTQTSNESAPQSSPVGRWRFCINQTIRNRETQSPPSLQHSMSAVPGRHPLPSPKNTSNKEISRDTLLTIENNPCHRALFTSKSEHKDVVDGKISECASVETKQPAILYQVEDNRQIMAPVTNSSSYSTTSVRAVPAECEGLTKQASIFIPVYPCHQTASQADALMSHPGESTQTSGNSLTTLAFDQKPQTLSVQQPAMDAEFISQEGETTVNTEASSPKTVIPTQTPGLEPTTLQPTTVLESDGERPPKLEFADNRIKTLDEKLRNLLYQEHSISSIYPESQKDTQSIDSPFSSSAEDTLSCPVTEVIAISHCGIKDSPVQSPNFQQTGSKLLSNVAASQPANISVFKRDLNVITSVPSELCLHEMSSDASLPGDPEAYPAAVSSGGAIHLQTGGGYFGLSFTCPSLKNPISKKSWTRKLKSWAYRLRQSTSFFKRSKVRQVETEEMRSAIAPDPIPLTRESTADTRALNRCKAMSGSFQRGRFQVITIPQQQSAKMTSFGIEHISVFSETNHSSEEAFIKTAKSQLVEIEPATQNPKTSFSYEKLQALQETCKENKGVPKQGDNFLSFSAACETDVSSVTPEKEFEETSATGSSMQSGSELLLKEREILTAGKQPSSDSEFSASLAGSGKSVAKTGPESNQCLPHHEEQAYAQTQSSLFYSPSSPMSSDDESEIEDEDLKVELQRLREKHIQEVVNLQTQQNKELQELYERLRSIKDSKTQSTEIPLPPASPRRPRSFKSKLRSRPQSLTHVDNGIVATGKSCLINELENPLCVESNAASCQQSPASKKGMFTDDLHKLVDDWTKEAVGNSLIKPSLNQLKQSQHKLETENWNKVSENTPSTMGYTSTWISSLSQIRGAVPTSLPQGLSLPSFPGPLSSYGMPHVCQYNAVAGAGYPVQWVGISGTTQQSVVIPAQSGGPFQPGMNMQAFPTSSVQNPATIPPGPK
In short: as §1

[3] = molecular target: T2, 266 human kinases (Homo sapiens, UniProt Q13976); details: PKG1α(h); 100 μM
T2 sequence (Q13976 1-671): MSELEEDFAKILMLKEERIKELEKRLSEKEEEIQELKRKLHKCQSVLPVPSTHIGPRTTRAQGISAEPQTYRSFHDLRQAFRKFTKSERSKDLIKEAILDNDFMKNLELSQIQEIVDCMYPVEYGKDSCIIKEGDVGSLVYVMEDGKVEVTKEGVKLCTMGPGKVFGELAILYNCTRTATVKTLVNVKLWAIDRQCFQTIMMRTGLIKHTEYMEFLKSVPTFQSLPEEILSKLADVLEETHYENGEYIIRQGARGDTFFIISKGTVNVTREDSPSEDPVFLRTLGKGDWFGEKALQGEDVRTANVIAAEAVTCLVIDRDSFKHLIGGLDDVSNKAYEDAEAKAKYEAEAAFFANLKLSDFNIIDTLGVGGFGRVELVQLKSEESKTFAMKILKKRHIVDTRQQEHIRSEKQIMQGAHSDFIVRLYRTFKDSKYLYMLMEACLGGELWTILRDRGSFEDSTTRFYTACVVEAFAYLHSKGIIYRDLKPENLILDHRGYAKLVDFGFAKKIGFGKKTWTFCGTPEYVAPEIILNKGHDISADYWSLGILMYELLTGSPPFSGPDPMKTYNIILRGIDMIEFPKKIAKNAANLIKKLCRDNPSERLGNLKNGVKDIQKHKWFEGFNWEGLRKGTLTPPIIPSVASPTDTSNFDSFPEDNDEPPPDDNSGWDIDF
In short: as §1

[4] = molecular target: 266 human kinases (Homo sapiens, UniProt Q9Y6E0); details: MST3(h); 100 μM
Sequence of 266 human kinases (Homo sapiens, UniProt Q9Y6E0) (Q9Y6E0 whole entry): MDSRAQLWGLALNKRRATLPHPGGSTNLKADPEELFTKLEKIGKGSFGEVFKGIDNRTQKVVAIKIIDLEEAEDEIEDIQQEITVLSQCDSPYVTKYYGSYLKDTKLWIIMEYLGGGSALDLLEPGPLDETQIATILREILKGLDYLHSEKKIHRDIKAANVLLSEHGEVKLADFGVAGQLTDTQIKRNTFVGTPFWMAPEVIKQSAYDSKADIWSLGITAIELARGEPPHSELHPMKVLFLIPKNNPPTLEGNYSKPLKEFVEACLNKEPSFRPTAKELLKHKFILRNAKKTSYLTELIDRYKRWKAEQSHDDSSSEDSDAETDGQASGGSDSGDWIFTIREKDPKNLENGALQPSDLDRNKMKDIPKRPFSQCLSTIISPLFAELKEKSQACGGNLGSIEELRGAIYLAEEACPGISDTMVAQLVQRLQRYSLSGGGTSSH
In short: as §1

[5] = molecular target: T3, 266 human kinases (Homo sapiens, UniProt P42680); details: Tec(h)activated; 100 μM
T3 sequence (P42680 1-631): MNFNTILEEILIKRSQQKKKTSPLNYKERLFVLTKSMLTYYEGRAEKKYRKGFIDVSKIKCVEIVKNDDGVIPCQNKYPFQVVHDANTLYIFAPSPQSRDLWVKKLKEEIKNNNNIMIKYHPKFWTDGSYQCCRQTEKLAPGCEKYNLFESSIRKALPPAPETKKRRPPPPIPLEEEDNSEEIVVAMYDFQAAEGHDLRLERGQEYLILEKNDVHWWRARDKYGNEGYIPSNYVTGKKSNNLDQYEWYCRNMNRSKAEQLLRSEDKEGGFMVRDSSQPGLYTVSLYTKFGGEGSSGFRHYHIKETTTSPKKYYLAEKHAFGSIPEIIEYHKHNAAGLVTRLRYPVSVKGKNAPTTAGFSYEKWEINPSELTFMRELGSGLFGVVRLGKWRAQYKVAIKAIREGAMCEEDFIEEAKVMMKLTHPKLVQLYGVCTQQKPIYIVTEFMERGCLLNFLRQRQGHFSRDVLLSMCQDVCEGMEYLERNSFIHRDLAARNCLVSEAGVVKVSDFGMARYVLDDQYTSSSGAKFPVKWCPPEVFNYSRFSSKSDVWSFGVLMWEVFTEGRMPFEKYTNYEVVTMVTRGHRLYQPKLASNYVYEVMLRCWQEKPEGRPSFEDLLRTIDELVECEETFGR
In short: as §1

Sequence | % activity [1] [%] | % activity [2] [%] | % activity [3] [%] | % activity [4] [%] | % activity [5] [%]
HRRIKAWLKKIKALARQLGVAA (mammal) [MMI-0500] | 124 | 9 | 25 | 4 | 33
YARAAARQARAKALNRQLGVA (mammal) [MMI-0200] | 132 | 97 | 70 | 95 | 77
